Data taken from the supplement of paper PMC10201428.
± gives the standard deviation of the averaged measurements.

How the values were obtained:
[1] = system: VchCAST RNA-guided transposition machinery (E. coli BL21(DE3) host, lacZ target); test: relative integration efficiency (T-LR orientation) vs wild-type transposon end (log2 (normalized fold change)); transposon end mutated: right end (5 bp flank + 75 bp right end); higher = more efficient transposition
Outline: (§1)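 A T7-driven effector plasmid encoding a CRISPR array, tniQ-cas8-cas7-cas6 and tnsA-tnsB-tnsC was co-transformed into E. coli BL21(DE3) together with a pUC57 mini-transposon donor holding barcoded pools of 1549 left-end or 1849 right-end variants. Transformants were plated with 0.1 mM IPTG at 37°C for 18 h. Illumina sequencing of PCR-amplified input plasmids and genomic integration junctions gave barcode abundances, and relative integration efficiency is their output/input fold change, normalised to reference barcodes and log-transformed.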

[2] = system: VchCAST RNA-guided transposition machinery (E. coli BL21(DE3) host, lacZ target); test: relative integration efficiency (T-RL orientation) vs wild-type transposon end (log2 (normalized fold change)); transposon end mutated: right end (5 bp flank + 75 bp right end); higher = more efficient transposition
Outline: as §1

Sequence	relative integration efficiency (log2) [1]	relative integration efficiency (log2) [2]
ACATTTGTTGATACAACCATAAAATGATAATTAATAATTATTTATAATCAGCAACTTACACCCATAAATTGATAATTATCACACCCATAAATTGATATTGCCTCTGATCATAGTCAGACCAACATTG	-3.43 ± 0.46	-5.34 ± 0.86
ACATTTGTTGATACAACCATAAAATGATAATTAGTGGGTATTTAACTATTAATTCAGTGGGTATTTAACTATAACGCTCTGATCATAGTCAGACCAACATTGCTACGACCCGTATTCGCACCGACAC	1.17 ± 0.31	-2.37 ± 0.12
ACATTTGTTGATACAACCATAAAATGATAATTACACCCATAAATACTAAATTATCACACCCATAAATTGATATTGCCTCTGATCATAGTCAGACCAACATTGCTACGACCCGTATTCGCACCGACAC	-1.26 ± 0.24	-1.56 ± 0.23
ACATTTGTTGATACACCCATAAATTGATATTGCCACCCATAAATTGATAATTATCACAACCATATATTGATATCTCCTCTGATCATAGTCAGACCAACATTGCTACGACCCGTATTCGCACCGACAC	-0.478 ± 0.18	-1.14 ± 0.14
ACATTTGTCGATACAACCATAAAATGATAATTACACCCATAAATTGATCATTATCACACCCAATTTAACTATAACGCTCTGATCATAGTCAGACCAACATTGCTACGACCCGTATTCGCACCGACAC	2.328 ± 0.013	-1.31 ± 0.23
ACCGGGGTTGATACAACCATAAAATGATAATTACACCCATAAATTGATAATTATCACACCCATAAATTGATATTGCCTCTGATCATAGTCAGACCAACATTGCTACGACCCGTATTCGCACCGACAC	-5.64 ± 0.3	-6.81 ± 0.49
ACATTTGTTGATACACCCATAAATTGATATTGCCAACCATAAAATGATAATTATCACACCCATAAATTGATATTGCCTCTGATCATAGTCAGACCAACATTGCTACGACCCGTATTCGCACCGACAC	-0.203 ± 0.43	-0.863 ± 0.071
ACATTTGTTGATACAACCATAAAATGATAATTCCACCCATACATTGATAATTATCACACCCAATTTAACTATAACGCTCTGATCATAGTCAGACCAACATTGCTACGACCCGTATTCGCACCGACAC	0.785 ± 0.032	-2.42 ± 0.38
ACATTTGTTGATACAACCATAAAATGATAATTACTCTGATCATAGTCAGACACCCATAAATTGATAATTATCAGTGGGTATTTAACTATAACGCCAACATTGCTACGACCCGTATTCGCACCGACAC	1.66 ± 0.32	-1.71 ± 0.23
ACATTTGTTGATACAACCATTAAATGGTAATTCCACCCAAAAATTGATAATTATCACACCCAATTTAACTATAACGCTCTGATCATAGTCAGACCAACATTGCTACGACCCGTATTCGCACCGACAC	0.883 ± 0.18	-2.14 ± 0.21
ACATTTGTTGATACAACCATATATTGATATCTCCAACCATAAAGTGATATTTATCACACCCATAAATTGATATTGCCTCTGATCATAGTCAGACCAACATTGCTACGACCCGTATTCGCACCGACAC	-0.302 ± 0.25	-0.42 ± 0.096
ACATTTGTTGATACCACCATCAAATGGTAATTCCACCCATACATTGATAATTATCACACCCAATTTAACTATAACGCTCTGATCATAGTCAGACCAACATTGCTACGACCCGTATTCGCACCGACAC	-4.54 ± 0.41	-6.61 ± 0.18
ACATTTGTTGATACAACCATAAAATGATAATTACACCCAGCCCGGTCGCCGGCGACACAAACGCCCGGTCGCGGTAAGAGGATCATAGTCAGACCAACATTGCTACGACCCGTATTCGCACCGACAC	1.03 ± 0.08	-1.97 ± 0.16
ACATTTGTCGATACAACCATAAAACGATAATTACACCCATAAATTCATAATTATCACACCCAATTTAACTATAACGCTCTGATCATAGTCAGACCAACATTGCTACGACCCGTATTCGCACCGACAC	1.06 ± 0.15	-2.45 ± 0.33
ACATTTGTTGATACAACCATAAAATGATAATTACACCCATAAATTGATAATTATCCACAAACGCCCGGTCGCGGTAAGAGGATCATAGTCAGACCAACATTGCTACGACCCGTATTCGCACCGACAC	2.3 ± 0.11	-0.795 ± 0.075
ACATTTGTTGATACAACCATAAAAGGATCATTCACCCCTAAATTGATAATTATCACACCCACATTTAACTATAACGCTCTGATCATAGTCAGACCAACATTGCTACGACCCGTATTCGCACCGACAC	-1.36 ± 0.36	-4.73 ± 0.18
ACATTTGTTGATACACCCATAAATTGATAATTACACCCATAAATTGATATTGCTCACACCCATAAATTGATATTGCCTCTGATCATAGTCAGACCAACATTGCTACGACCCGTATTCGCACCGACAC	0.393 ± 0.28	-0.538 ± 0.15
ACATTTGTTGATACAACCATAAAATGATAATTACACCCATAAATGTCGCCGGCGACACAAACGCCCGGTCGCGGTAAGAGGATCATAGTCAGACCAACATTGCTACGACCCGTATTCGCACCGACAC	1 ± 0.17	-1.73 ± 0.3
ACATTTGTTGATACAACCATAAAATGATAATTACTCTGATCATAGTCAGACCAACATTGCTACGACCCCACCCATAAATTGATAATTATCACACCCATAAATTGATATTGCGTATTCGCACCGACAC	-0.249 ± 0.18	-3.23 ± 0.04
ACATTTGTTGATACAACCATAAAATGATAATATGTCCCATAAATTGATAATTATCACACCCATAAATTGATATTGCCTCTGATCATAGTCAGACCAACATTGCTACGACCCGTATTCGCACCGACAC	-0.96 ± 0.27	-1.29 ± 0.17
ACATTTGTTGATACAACCATAAAATGATAATTAATAATTATCACCCATAAATTGATAATTATCAACAAACGCCCGGTCGCGGTACTCTGATCATAGTCAGACCAACATTGCTACGACCCGTATTCGC	-0.012 ± 0.0046	-3.56 ± 0.2
ACATTTGGTGATACAACCATATAATGATAATAACACCCATAAAATGATAATTATCACACCCAATTTAACTATAACGCTCTGATCATAGTCAGACCAACATTGCTACGACCCGTATTCGCACCGACAC	-3.69 ± 0.97	-6.35 ± 0.32
ACATTTGTTGATACCACCATAAAATGATAATTACACCCCTACATTGATAATTATCACACCCAATTTAACTATAACGCTCTGATCATAGTCAGACCAACATTGCTACGACCCGTATTCGCACCGACAC	-0.284 ± 0.22	-3.75 ± 0.28
ACATTTGTTGATACAACCATAATTTGATAATTACACCCATAATATGATAATTATCACACCCATAATATGATATTGCCTCTGATCATAGTCAGACCAACATTGCTACGACCCGTATTCGCACCGACAC	-0.228 ± 0.16	-0.651 ± 0.15
ACATTTGTTGATACAACCATAAAATGATAATTAATAATTATTTATCACCCATAAATTGATAATTATCACACCCATAAATTGATATTGCCTCTGATCATAGTCAGACCAACATTGCTACGACCCGTAT	-2.04 ± 0.35	-3.21 ± 0.32
ACATTTGTTGATACAACCATAAAGTGATATTTACAACCATAAGTTGATATTTTTCACAACCATAAAGTGATATTTACTCTGATCATAGTCAGACCAACATTGCTACGACCCGTATTCGCACCGACAC	0.0534 ± 0.15	0.0395 ± 0.16
ACATTTGTTCATACAACCCTAAAATGATAATTACACCCATAAATTGATAATTATCACCCCCAATTTAACTATAACGCTCTGATCATAGTCAGACCAACATTGCTACGACCCGTATTCGCACCGACAC	-0.953 ± 0.35	-2.74 ± 0.42
